Data set [1] is described as follows: Circular dichroism (CD) spectroscopy of linear and stapled peptides in water or 40% TFE/water (Example 3). Particulars: for [0]208 mean residue ellipticity: λ = 208 nm; for [0]222 mean residue ellipticity: λ = 222 nm. Format: physicochemical. In a few lines:
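Spectra 180–260 nm at 20 °C, 0.5 mM N-acetylated, C-amidated peptides in 0.1M phosphate buffer (water) or 40% TFE/water, 1 mm path, five scans averaged, buffer baseline subtracted. Mean residue ellipticity reported at 222 and 208 nm with the 222/208 ratio as helicity index.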

Data set [2] is described as follows: Direct HA-binding ELISA of biotinylated peptides on HA coated plates (Example 4). The arrangement: key to HA binding: absorbance (color) read at 450 nm. Particulars: for HA binding: as repeated in tables 16, 18, 20; for HA direct binding (OD): optical density, summary tables 15, 17, 19. The method, boiled down:
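N-terminally biotinylated peptides (AEEA spacer) added to HA-coated wells at 0.8 or 0.08 μM, n=3, overnight at 4° C with shaking; biotin-labeled 7 kDa RHAMM as positive control. Bound peptide detected with streptavidin-HRP (1 hr, room temperature) and TMB substrate (5-10 min), absorbance at 450 nm.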

In data set [3] the test system is RHAMM-overexpressing (LR21) cells. The data set is described as follows: Cell migration assay (Boyden chamber, Chemicon ECM510). Format: cell-based. Particulars: for inhibition of cell migration (in words): 10 ng/mL peptide, 20 hours, compared to 30% serum control; for Migration (% inhib.): % inhibition relative to positive control. The method, boiled down:
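Serum-starved LR21 cells (7.5×10^4) placed in the upper Boyden chamber with or without 10 ng/mL peptide, with 30% FBS in DMEM as lower-chamber chemoattractant. Cells crossing the membrane after 20 h quantified by CyQUANT GR fluorescence (480/520 nm); mean of n=3, compared with 30% serum control.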

Data set [4] relates to IMR90 human fetal lung fibroblasts. Kind of data set: Fibrosis assay: active TGF-β levels in TGF-β treated fibroblasts (ELISA). To be noted: for Fibrosis (% inhib.): % inhibition relative to positive control. Format: cell-based. As for the experimental part: Compounds 132, 133, 135, 150, 152, 157-161, 265-269, 275, 277, and 278 were evaluated for their ability to inhibit fibrosis. IMR90 human fetal lung fibroblasts were obtained from ATCC and maintained in DMEM supplemented with 10% fetal bovine serum. In order to examine the effect of peptides on myofibroblast differentiation, 80% confluent cultures were serum starved overnight prior to addition of TGF-β (2 ng/mL, R&D Systems). Cells were treated with TGF-β for 24 hours prior to addition of peptides (10 ng/mL). 48 hours after addition of peptides, culture supernatants were collected and levels of active TGF-β measured using commercially available TGF-β ELISA (Quantikine, R&D Systems).
Values are the Mean and SDM n=3 replicates. *p<0.05, **p<0.01, ***p<0.001 when compared to the +TGFβ1 control. In FIG. 47, where bars are labeled with two compound numbers (“133/150” and “135/152”) this means that the data were pooled for the indicated compounds, i.e., for the non-acetylated and acetylated versions of the indicated peptides.

Setting [5] is: [θ]222/[θ]208 ratio in water, summary tables 15, 17, 19.
[6] abbreviates: as repeated in tables 16, 18, 20.

Bridges are numbered along the chain shown (N, C = ends).

With “Ac-(cyclo-7-11, cyclo-28-32)-NLKQKI[EHVVK]LKDENSQLKSEVSKLR[EQLVK]RKQN-NH2 (Ac-NLKQKIEHVVKLKDENSQLKSEVSKLREQLVKRKQN-NH2; lactam 7-11, 28-32; SMILES CC[C@H](C)[C@H](NC(=O)[C@H](CCCCN)NC(=O)[C@H](CCC(N)=O)NC(=O)[C@H](CCCCN)NC(=O)[C@H](CC(C)C)NC(=O)[C@H](CC(N)=O)NC(C)=O)C(=O)N[C@H]1CCC(=O)NCCCC[C@@H](C(=O)N[C@@H](CC(C)C)C(=O)N[C@@H](CCCCN)C(=O)N[C@@H](CC(=O)O)C(=O)N[C@@H](CCC(=O)O)C(=O)N[C@@H](CC(N)=O)C(=O)N[C@@H](CO)C(=O)N[C@@H](CCC(N)=O)C(=O)N[C@@H](CC(C)C)C(=O)N[C@@H](CCCCN)C(=O)N[C@@H](CO)C(=O)N[C@@H](CCC(=O)O)C(=O)N[C@H](C(=O)N[C@@H](CO)C(=O)N[C@@H](CCCCN)C(=O)N[C@@H](CC(C)C)C(=O)N[C@@H](CCCNC(=N)N)C(=O)N[C@H]2CCC(=O)NCCCC[C@@H](C(=O)N[C@@H](CCCNC(=N)N)C(=O)N[C@@H](CCCCN)C(=O)N[C@@H](CCC(N)=O)C(=O)N[C@@H](CC(N)=O)C(N)=O)NC(=O)[C@H](C(C)C)NC(=O)[C@H](CC(C)C)NC(=O)[C@H](CCC(N)=O)NC2=O)C(C)C)NC(=O)[C@H](C(C)C)NC(=O)[C@H](C(C)C)NC(=O)[C@H](Cc2c[nH]cn2)NC1=O) [Compound 278]”, in data set [1] (40% TFE/water), the “[0]208 mean residue ellipticity at λ=208 nm” value was -2.44E04 deg cm^2 dmol^−1, the “[0]222/[0]208 ratio of ellipticities” value is on record as 0.86 and the “[0]222 mean residue ellipticity at λ=222 nm” value was -2.12E04 deg cm^2 dmol^−1. For the same substance, the “[θ]222/[θ]208 ratio of ellipticities” value in data set [1] (setting [5]) was determined as 0.74. Further, the “[θ]222/[θ]208 ratio of ellipticities” value in data set [1] (setting [6]) is recorded as 0.74. In addition, in data set [1] (in water), the “[0]222/[0]208 ratio of ellipticities” value came to 0.74 and the “alpha-helical character by CD (in words)” value is listed as “greatest alpha-helical character”. Further, in data set [1] (water), the “[0]208 mean residue ellipticity at λ=208 nm” value is given as -1.33E+04 deg cm^2 dmol^−1, the “[0]222/[0]208 ratio of ellipticities” value amounted to 0.74 and the “[0]222 mean residue ellipticity at λ=222 nm” value is on record as -9.95E+03 deg cm^2 dmol^−1. Besides, in data set [2], the HA binding is on record as 0.125 and the “HA direct binding (OD)” value is 0.125 OD. Besides, in data set [3], the “inhibition of cell migration (in words)” value is “significantly inhibit cell migration” and the “Migration (% inhib.)” value stood at 45 % inhib. In addition, in data set [4] (10 ng/mL peptide, 48 hours, compared to +TGFβ1 control), the “inhibition of fibrosis (active TGF-β, in words)” value is “strong trend towards inhibition of fibrosis”. The “Fibrosis (% inhib.)” value in data set [4] was determined as 0 % inhib.
For “Ac-(cyclo-6,10)-NLKQK[EKHVK]KLKDE-NH2 (Ac-NLKQKEKHVKKLKDE-NH2; lactam 6-10; SMILES CC(=O)N[C@@H](CC(N)=O)C(=O)N[C@@H](CC(C)C)C(=O)N[C@@H](CCCCN)C(=O)N[C@@H](CCC(N)=O)C(=O)N[C@@H](CCCCN)C(=O)N[C@H]1CCC(=O)NCCCC[C@@H](C(=O)N[C@@H](CCCCN)C(=O)N[C@@H](CC(C)C)C(=O)N[C@@H](CCCCN)C(=O)N[C@@H](CC(=O)O)C(=O)N[C@@H](CCC(=O)O)C(N)=O)NC(=O)[C@H](C(C)C)NC(=O)[C@H](Cc2c[nH]cn2)NC(=O)[C@H](CCCCN)NC1=O) [Compound 159]”, the “[θ]222/[θ]208 ratio of ellipticities” value in data set [1] (setting [5]) is 0.44. Also, in data set [1] (setting [6]), the “[θ]222/[θ]208 ratio of ellipticities” value was 0.44. Besides, in data set [1] (in 40% TFE/water), the “[0]222/[0]208 ratio of ellipticities” value stood at 0.85 and the “[0]222 mean residue ellipticity” value is given as -1.26E+04 deg cm^2 dmol^−1. Also, in data set [1] (in water), the “[0]222/[0]208 ratio of ellipticities” value is 0.44, the “[0]208 mean residue ellipticity” value is on record as -5.95E+03 deg cm^2 dmol^−1 and the “[0]222 mean residue ellipticity” value is listed as -2.61E+03 deg cm^2 dmol^−1. In addition, in data set [2], the HA binding came out at 0.009 and the “HA direct binding (OD)” value was found to be 0.009 OD. Further, the “Migration (% inhib.)” value in data set [3] came out at 0 % inhib. Besides, the “Fibrosis (% inhib.)” value in data set [4] is listed as 50 % inhib.
Regarding “Ac-(cyclo-10-14, cyclo-15-19)-KIKHVVKLK[KENSE][EKSEK]SKLRSQLVKRK-NH2 [Compound 269]”, in data set [1] (40% TFE/water), the “[0]208 mean residue ellipticity at λ=208 nm” value is -2.65E04 deg cm^2 dmol^−1, the “[0]222/[0]208 ratio of ellipticities” value is on record as 0.81 and the “[0]222 mean residue ellipticity at λ=222 nm” value was -2.14E04 deg cm^2 dmol^−1. Besides, the “[θ]222/[θ]208 ratio of ellipticities” value in data set [1] (setting [5]) worked out at 0.44. For the same substance, the “[θ]222/[θ]208 ratio of ellipticities” value in data set [1] (setting [6]) was 0.44. Besides, in data set [1] (water), the “[0]208 mean residue ellipticity at λ=208 nm” value is -9.04E+03 deg cm^2 dmol^−1, the “[0]222/[0]208 ratio of ellipticities” value is 0.44 and the “[0]222 mean residue ellipticity at λ=222 nm” value is listed as -3.99E+03 deg cm^2 dmol^−1. Further, in data set [2], the HA binding is on record as 0.19 and the “HA direct binding (OD)” value turned out to be 0.19 OD. In addition, in data set [3], the “inhibition of cell migration (in words)” value is listed as “significantly inhibit cell migration” and the “Migration (% inhib.)” value was determined as 61 % inhib. In data set [4], the “Fibrosis (% inhib.)” value worked out at 0 % inhib.
For “Ac-(cyclo-8,12)-NLKQKIK[EVVKK]KDE-NH2 (Ac-NLKQKIKEVVKKKDE-NH2; lactam 8-12; SMILES CC[C@H](C)[C@H](NC(=O)[C@H](CCCCN)NC(=O)[C@H](CCC(N)=O)NC(=O)[C@H](CCCCN)NC(=O)[C@H](CC(C)C)NC(=O)[C@H](CC(N)=O)NC(C)=O)C(=O)N[C@@H](CCCCN)C(=O)N[C@H]1CCC(=O)NCCCC[C@@H](C(=O)N[C@@H](CCCCN)C(=O)N[C@@H](CC(=O)O)C(=O)N[C@@H](CCC(=O)O)C(N)=O)NC(=O)[C@H](CCCCN)NC(=O)[C@H](C(C)C)NC(=O)[C@H](C(C)C)NC1=O) [Compound 161]”, the “[θ]222/[θ]208 ratio of ellipticities” value in data set [1] (setting [5]) worked out at 0.31. The “[θ]222/[θ]208 ratio of ellipticities” value in data set [1] (setting [6]) came to 0.31. In addition, in data set [1] (in 40% TFE/water), the “[0]222/[0]208 ratio of ellipticities” value came to 0.82, the “[0]208 mean residue ellipticity” value is -1.96E+04 deg cm^2 dmol^−1 and the “[0]222 mean residue ellipticity” value is given as -1.60E+04 deg cm^2 dmol^−1. For the same substance, in data set [1] (in water), the “[0]222/[0]208 ratio of ellipticities” value is 0.31, the “alpha-helical character by CD (in words)” value is given as “decreased helicity”, the “[0]208 mean residue ellipticity” value is on record as -5.85E+03 deg cm^2 dmol^−1 and the “[0]222 mean residue ellipticity” value is on record as -1.80E+03 deg cm^2 dmol^−1. Besides, in data set [2], the HA binding was determined as 0.009 and the “HA direct binding (OD)” value amounted to 0.009 OD. In data set [3], the “inhibition of cell migration (in words)” value is listed as “significantly inhibit cell migration” and the “Migration (% inhib.)” value is 36 % inhib. Further, in data set [4], the “Fibrosis (% inhib.)” value is recorded as 38 % inhib.
For the substance “Ac-(cyclo-7,11)-NLKQKI[EHVVK]LKDE-NH2 (Ac-NLKQKIEHVVKLKDE-NH2; lactam 7-11; SMILES CC[C@H](C)[C@H](NC(=O)[C@H](CCCCN)NC(=O)[C@H](CCC(N)=O)NC(=O)[C@H](CCCCN)NC(=O)[C@H](CC(C)C)NC(=O)[C@H](CC(N)=O)NC(C)=O)C(=O)N[C@H]1CCC(=O)NCCCC[C@@H](C(=O)N[C@@H](CC(C)C)C(=O)N[C@@H](CCCCN)C(=O)N[C@@H](CC(=O)O)C(=O)N[C@@H](CCC(=O)O)C(N)=O)NC(=O)[C@H](C(C)C)NC(=O)[C@H](C(C)C)NC(=O)[C@H](Cc2c[nH]cn2)NC1=O) [Compound 160]”, in data set [1] (setting [5]), the “[θ]222/[θ]208 ratio of ellipticities” value worked out at 0.55. In addition, in data set [1] (setting [6]), the “[θ]222/[θ]208 ratio of ellipticities” value is given as 0.55. Besides, in data set [1] (in 40% TFE/water), the “[0]222/[0]208 ratio of ellipticities” value is listed as 0.86, the “[0]208 mean residue ellipticity” value is on record as -1.65E+04 deg cm^2 dmol^−1 and the “[0]222 mean residue ellipticity” value is -1.42E+04 deg cm^2 dmol^−1. For the same substance, in data set [1] (in water), the “[0]222/[0]208 ratio of ellipticities” value amounted to 0.55, the “[0]208 mean residue ellipticity” value is given as -6.98E+03 deg cm^2 dmol^−1 and the “[0]222 mean residue ellipticity” value is listed as -3.85E+03 deg cm^2 dmol^−1. In data set [2], the HA binding amounted to 0.004 and the “HA direct binding (OD)” value is given as 0.004 OD. The “Migration (% inhib.)” value in data set [3] was determined as 0 % inhib. Besides, the “Fibrosis (% inhib.)” value in data set [4] was found to be 0 % inhib.
